Molecular target: Myc-GRAF3 (human) (UniProt A6NI28)
Chain of UniProt A6NI28 (A6NI28 whole entry): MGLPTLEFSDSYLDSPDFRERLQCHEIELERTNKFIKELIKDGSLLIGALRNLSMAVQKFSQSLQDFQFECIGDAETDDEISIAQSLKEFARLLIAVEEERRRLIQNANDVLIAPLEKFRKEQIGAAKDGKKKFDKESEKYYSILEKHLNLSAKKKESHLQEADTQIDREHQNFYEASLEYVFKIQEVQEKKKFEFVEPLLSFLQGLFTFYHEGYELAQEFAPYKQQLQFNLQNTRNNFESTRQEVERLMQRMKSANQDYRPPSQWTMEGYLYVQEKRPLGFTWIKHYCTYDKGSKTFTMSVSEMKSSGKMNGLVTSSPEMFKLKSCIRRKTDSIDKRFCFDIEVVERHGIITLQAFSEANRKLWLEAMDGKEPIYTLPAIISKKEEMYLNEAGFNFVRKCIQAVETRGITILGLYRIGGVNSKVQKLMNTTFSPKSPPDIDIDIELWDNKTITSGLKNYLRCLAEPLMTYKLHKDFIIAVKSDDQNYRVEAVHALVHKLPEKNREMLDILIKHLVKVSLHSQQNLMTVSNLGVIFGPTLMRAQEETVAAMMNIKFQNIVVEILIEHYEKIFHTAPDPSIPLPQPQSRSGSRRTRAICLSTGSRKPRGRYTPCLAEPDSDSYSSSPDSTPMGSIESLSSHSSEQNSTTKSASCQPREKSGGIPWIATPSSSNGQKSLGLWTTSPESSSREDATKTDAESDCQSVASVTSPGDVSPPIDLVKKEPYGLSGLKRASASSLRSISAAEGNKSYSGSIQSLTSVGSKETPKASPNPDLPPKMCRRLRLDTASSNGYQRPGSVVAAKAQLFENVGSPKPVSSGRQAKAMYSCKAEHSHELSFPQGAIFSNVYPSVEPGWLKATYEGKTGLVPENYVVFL

Flag-GRAF3 Bar-PH (domain or fragment)
RhoA-dependent actin stress fibers (phalloidin staining) in RaAoSMC; cells with reduced stress fibers: 58/59 with Myc-GRAF3 alone, 5/72 with Myc-GRAF3 and Flag-BAR-PH: 5 of 72 cells

Source: PMC7226614
